Test results: patent US20230374116A1 (ROSALIND FRANKLIN INSTITUTE, published 2023)

Biological target: SARS-CoV-2 receptor-binding domain (amino acids 330-532), prototypical Wuhan/Victoria (SARS-CoV-2 (Wuhan/Victoria), UniProt P0DTC2 330-532)
Test: X-ray crystallography

B1: A8 (VHH)
VHH: QVQLVESGGGLVQAGGSLRLSCAASGGTFSTAAMGWFRQAPGEERECVASIGWRGVRTWYADSVKGRFTISRDNPQNTVYLQMNNLKSGDTAVYYCAASVGNYGLPWAHFEYDFWGQGIQVTVSS
notes: also called 2_A8
Q: Does B1 bind?
A: binds
